Among the data in publication PMC9924070 (2021) are Kd and koff values, retold here.

The Kd is the constant that tells how readily two partners part at equilibrium. Low readings indicate a tighter complex, high ones a looser complex. A word on the koff: it is the rate constant with which the complex falls apart.

Common to all, as to experiment: BLI
In experiment [1] the target is T1, monomeric human Fc-fused SARS-CoV-2_RBD-SD1 (SARS-CoV-2).
In experiment [2] the target is T1, monomeric human Fc-fused …. This is another data set of the same source.
Experiment [3] concerns the target T2, Mouse IgG1 Fc-fused SARS-CoV-2 RBD (SARS-CoV-2, UniProt P0DTC2).
Experiment [4] has as its target T2, Mouse IgG1 Fc-fused SARS-CoV-2 RBD. This is another data set of the same source.

Residue numbers refer to the chain shown, from its start.

B1: humVHH (VHH)
VHH: EVQLVESGGGLVQPGGSLRLSCAASGRTFSEYAMGWFRQAPGKEREFVATISWSGGSTYYTDSVKGRFTISRDNAKNTVYLQMNSLRPEDTAVYYCAAAGLGTVVSEWDYDYDYWGQGTLVTVSS
As for B1, the Kd in experiment [1] was found to be 63 nM. The molecule also came in with a dissociation rate constant (koff) in experiment [2] of 0.088 s⁻¹.

B2: humVHH_S56A (VHH)
VHH: B1 VHH with S57A
For B2, in experiment [1], binding was characterised by a dissociation constant (Kd) of 8.3 nM. In experiment [2], this molecule returned a koff of 0.023 s⁻¹.

B3: humVHH_S56A/LALAPG-Fc (Fc fusion)
chain: B1 VHH with S57A
In the case of B3, the koff in experiment [3] amounted to 8.16e-05 s⁻¹. For the same molecule, the Kd in experiment [4] came to 0.0477 nM.
